Assay results taken from the supplement of paper PMC7125110.
± gives the standard error. For some assays here: This sample holds only a part of the variants without activity.

B1: glmS ribozyme (parent)
chain: AUAAAAGCGCCAGAACUACAGAAAUGUAGUUGACGAGGAGGAGGUUUAUCGAAUUUUCGGCGGAUGCCUCCAAA

Experiments:
Settings in all cases: with glucosamine-6-phosphate
glucosamine-6-phosphate [1] = variants of: B1; assay: kcat; higher = faster cleavage; RNA array
How it was run: (§1)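 On sequenced MiSeq chips, barcoded ribozyme variants were made in situ by E. coli RNA polymerase and followed at 37 °C through a hybridised Cy3 probe. Glucosamine-6-phosphate was flowed in at 40 μM to 10 mM in HEPES/KCl/Mg(OAc)2 buffer. Exponential fits to normalised per-tile medians gave kobs, and weighted Michaelis–Menten fits gave kcat and KM.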

glucosamine-6-phosphate [2] = variants of: B1; assay: self-cleavage kobs at 160 uM GlcN6P; higher = faster cleavage; RNA array
How it was run: as §1

glucosamine-6-phosphate [3] = variants of: B1; assay: self-cleavage kobs at 10000 uM GlcN6P; higher = faster cleavage; RNA array
How it was run: as §1

glucosamine-6-phosphate [4] = variants of: B1; assay: self-cleavage kobs at 40 uM GlcN6P; higher = faster cleavage; RNA array
How it was run: as §1

glucosamine-6-phosphate [5] = variants of: B1; assay: self-cleavage kobs at 2500 uM GlcN6P; higher = faster cleavage; RNA array
How it was run: as §1

glucosamine-6-phosphate [6] = variants of: B1; assay: self-cleavage kobs at 640 uM GlcN6P; higher = faster cleavage; RNA array
How it was run: as §1

glucosamine-6-phosphate [7] = variants of: B1; assay: KM; higher = weaker cofactor use; RNA array
How it was run: as §1

| Variant | kcat (glucosamine-6-phosphate [1]) [s⁻¹] | self-cleavage kobs at 160 uM GlcN6P (glucosamine-6-phosphate [2]) [s⁻¹] | self-cleavage kobs at 10000 uM GlcN6P (glucosamine-6-phosphate [3]) [s⁻¹] | self-cleavage kobs at 40 uM GlcN6P (glucosamine-6-phosphate [4]) [s⁻¹] | self-cleavage kobs at 2500 uM GlcN6P (glucosamine-6-phosphate [5]) [s⁻¹] | self-cleavage kobs at 640 uM GlcN6P (glucosamine-6-phosphate [6]) [s⁻¹] | KM (glucosamine-6-phosphate [7]) [µM] |
| --- | --- | --- | --- | --- | --- | --- | --- |
| A33C G59U | < 1e-05 | < 1e-05 | < 1e-05 |  |  |  |  |
| C10U U54G | < 1e-05 |  |  | < 1e-05 |  |  |  |
| C10U U56G | 3.3e-05 ± 4.5e-06 |  | 2.92e-05 ± 6.7e-06 |  | 2.86e-05 ± 8.5e-06 |  |  |
| G9C G60A | < 1e-05 |  |  |  |  | < 1e-05 |  |
| G29U C50A G60U | 1e-05 ± 4.9e-06 |  |  |  | < 1e-05 |  |  |
| G37A U69A | 7.14e-05 ± 8.5e-06 |  | 4.06e-05 ± 8.5e-06 |  |  |  | 7590 ± 2000 |
| C11U C71U | 0.00111 ± 0.0002 | 0.000143 ± 2.6e-05 | 0.00102 ± 0.0002 | 0.000116 ± 4.3e-05 | 0.000796 ± 0.00014 | 0.000418 ± 7.1e-05 | 1030 ± 320 |
| A42G | 0.0432 ± 0.015 | 0.00406 ± 0.00021 | 0.0639 ± 0.0036 | 0.00143 ± 3.4e-05 | 0.0238 ± 0.0016 | 0.0128 ± 0.00054 | 1270 ± 530 |
| A15U U47C | 0.00038 ± 5e-05 | 5.24e-05 ± 1.3e-05 | 0.000325 ± 3.4e-05 |  | 0.00036 ± 5e-05 | 0.00024 ± 7.3e-05 | 862 ± 310 |
| U31G U47G | 0.00226 ± 0.00055 | 0.000127 ± 3.3e-05 | 0.00176 ± 0.00028 | 7.25e-05 ± 1.9e-05 | 0.0016 ± 0.00031 | 0.000663 ± 0.00011 | 1880 ± 720 |
| G38A C50G | 3.77e-05 ± 1.1e-05 | 6.25e-05 ± 1.5e-05 |  |  | 3.46e-05 ± 1.4e-05 | 3.79e-05 ± 1.3e-05 |  |
| U45A A64U | 0.000543 ± 3.2e-05 |  | 0.000447 ± 7.9e-05 |  | 0.00029 ± 4.4e-05 | 0.00013 ± 2.1e-05 | 2140 ± 230 |
| U31G G66U U69G | 4.42e-05 ± 1.3e-05 | 6.31e-05 ± 2.1e-05 |  |  | 6.07e-05 ± 1.6e-05 |  |  |
| A6G U56A | 0.000242 ± 1.2e-05 |  | 0.00019 ± 3.6e-05 |  | 0.000114 ± 2.4e-05 | 4.69e-05 ± 1.4e-05 | 2780 ± 290 |
| U49G C67G | 8.59e-05 ± 1e-05 |  | 7.87e-05 ± 6.7e-06 |  | 4.61e-05 ± 8.8e-06 | 3.79e-05 ± 1e-05 |  |
| G40C G41A | 0.000118 ± 1.4e-05 |  | 0.000101 ± 1.3e-05 |  | 0.000104 ± 1.1e-05 | 5.69e-05 ± 8.6e-06 | 667 ± 260 |
| U56A G66U | 0.000875 ± 6.7e-05 | 5.15e-05 ± 8.2e-06 | 0.000712 ± 6.7e-05 |  | 0.000378 ± 4.5e-05 | 0.000164 ± 1.8e-05 | 2780 ± 350 |

| Variant | kcat (glucosamine-6-phosphate [1]) [s⁻¹] | self-cleavage kobs at 160 uM GlcN6P (glucosamine-6-phosphate [2]) [s⁻¹] | self-cleavage kobs at 10000 uM GlcN6P (glucosamine-6-phosphate [3]) [s⁻¹] | self-cleavage kobs at 40 uM GlcN6P (glucosamine-6-phosphate [4]) [s⁻¹] | self-cleavage kobs at 2500 uM GlcN6P (glucosamine-6-phosphate [5]) [s⁻¹] | self-cleavage kobs at 640 uM GlcN6P (glucosamine-6-phosphate [6]) [s⁻¹] | KM (glucosamine-6-phosphate [7]) [µM] |
| --- | --- | --- | --- | --- | --- | --- | --- |
| G13U A39U | 0.0016 ± 0.0003 | 4.9e-05 ± 1.9e-05 | 0.00112 ± 0.00016 | 3.33e-05 ± 1.6e-05 | 0.000513 ± 8.1e-05 | 0.000197 ± 3.6e-05 | 4770 ± 1400 |
| C50U A53G | 6.82e-05 ± 1.3e-06 |  | 6.42e-05 ± 1.5e-05 |  | 5.41e-05 ± 1.5e-05 | 3.45e-05 ± 1.6e-05 | 642 ± 54 |
| C34U C58G | < 1e-05 |  | < 1e-05 |  |  |  |  |
| A48U | 0.000759 ± 5.7e-05 |  | 0.000593 ± 1.1e-05 | < 1e-05 | 0.000432 ± 1e-05 | 0.000153 ± 3.5e-06 | 2420 ± 350 |
| G40U A48C | 5.25e-05 ± 2.1e-05 | < 1e-05 | 3.45e-05 ± 9.8e-06 |  |  |  |  |
| G13U A14G C61U C70G | 1.9e-05 ± 5.3e-06 |  |  |  |  |  |  |
| G40U U65C | 6.53e-05 ± 8.5e-06 |  | 5.76e-05 ± 1.1e-05 |  | 6.94e-05 ± 1.5e-05 |  |  |
| A15U U31G | 0.00129 ± 0.00024 | 0.000104 ± 2.2e-05 | 0.00102 ± 0.00012 | 1.82e-05 ± 8.3e-06 | 0.000572 ± 9.4e-05 | 0.000193 ± 3.7e-05 | 2960 ± 980 |
| U54A U65G C67U | 0.00302 ± 0.00027 | 0.000109 ± 3.7e-05 | 0.00217 ± 0.00041 |  |  | 0.000434 ± 9.2e-05 | 3900 ± 500 |
| G29U G40A | 0.000509 ± 4.9e-05 | 7.2e-05 ± 1.3e-05 | 0.000441 ± 4.7e-05 | 2.61e-05 ± 7.8e-06 | 0.000464 ± 6.4e-05 | 0.000221 ± 3.7e-05 | 859 ± 180 |
| G60C G66A | < 1e-05 |  |  |  |  | < 1e-05 |  |
| A36U C68G | 0.000198 ± 5.7e-05 |  | 0.000121 ± 3.4e-05 | 7.38e-05 ± 1.2e-05 |  | 0.000275 ± 3.5e-05 |  |
| A14G A48C | 0.00102 ± 4.5e-05 | 5.84e-05 ± 1.5e-05 | 0.000803 ± 7.7e-05 |  | 0.000509 ± 6.7e-05 | 0.000205 ± 8.1e-05 | 2630 ± 260 |
| A48G U55C | 0.000123 ± 9.6e-06 |  | 0.000113 ± 1.3e-05 |  | 0.000125 ± 2.5e-05 | 7.4e-05 ± 2.3e-05 | 458 ± 210 |
| A12G G13A | 6.3e-05 ± 2.4e-06 |  | 4.66e-05 ± 7.4e-06 |  | 2.7e-05 ± 9.7e-06 |  | 3470 ± 390 |
| G26A | 0.0116 ± 0.0035 | 0.00345 ± 0.0008 |  | 0.00121 ± 0.00035 | 0.00852 ± 0.0022 | 0.0112 ± 0.0022 |  |
